The values that follow come from patent publication US20240150441A1.

The target of assay [1] is spike (S) protein of the authentic parental Omicron variant (B.1.1.529) of SARS-CoV-2 (SARS-CoV-2, B.1.1.529 (Omicron) variant) (UniProt P0DTC2). The assay is described as follows: cell-based or functional assay.
The target in assay [2] is spike (S) protein of the BA.4/5 SARS-CoV-2 pseudovirus (SARS-CoV-2, Omicron subvariant BA.4/5) (UniProt P0DTC2). The assay is described as follows: cell-based or functional assay.

Turning to “plant-made cilgavimab (pCilgavimab) (antibody)”, the neutralization of authentic B.1.1.529 (Omicron) virus, foci-forming assay, IC50 in assay [1] came out at 2.23 µg/mL. The neutralization of BA.4/5 pseudovirus, luciferase reporter assay, IC50 in assay [2] stood at 0.102 µg/mL.
